The values below come from paper PMC6309364.

This assay deals with _(SUMO)BMC-HRmm (SUMOylated BMC-H protein of Mycobacterium smegmatis) (Mycobacterium smegmatis). The assay is described as follows: SEC. On the technique in general: In gel filtration, larger molecules generally elute earlier.

Usually stoichiometry N stands for the number of molecules, sites or subunits per partner or assembly.

“_(SUMO)BMC-HRmm (SUMOylated BMC-H protein of Mycobacterium smegmatis) (natural protein)” returned a stoichiometry N of 6.
